Experimental data: US20260116946A1, “NOVEL CD200 FUSION PROTEINS” (DUCENTIS BIOTHERAPEUTICS LIMITED, priority 2022, published 2026)
Where two headings read alike, the source gives them in different places.

What was measured:
[1] = target: Recombinant Cyno CD200R, His-tagged (Creative Biomart CD200R1-3483C) (cynomolgus) (UniProt G7NZT0); assay: SPR (BIAcore T200), CD200-Fc captured on anti-human Fc, cyno CD200R in solution, 25 C, mean of two runs
[2] = target: Recombinant Human CD200R, His-tagged (Creative Biomart CD200R1-320H) (human) (UniProt Q8TD46); assay: SPR (BIAcore), DS-155 captured via anti-human Fc, HuCD200R1 as analyte, DRC = 500 nM to 31.25 nM (5 curves), 25 °C, 1:1 Binding fit; Run 2
Recombinant Human CD200R, His-tagged (Creative Biomart CD200R1-320H) (human), sequence (Q8TD46 27-266 limits assumed): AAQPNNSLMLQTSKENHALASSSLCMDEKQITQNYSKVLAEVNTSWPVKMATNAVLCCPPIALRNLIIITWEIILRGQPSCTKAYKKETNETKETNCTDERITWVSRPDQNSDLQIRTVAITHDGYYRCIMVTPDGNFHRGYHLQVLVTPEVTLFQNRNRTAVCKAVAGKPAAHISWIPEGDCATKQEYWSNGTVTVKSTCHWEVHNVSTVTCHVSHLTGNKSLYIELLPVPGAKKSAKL

[3] = target: Recombinant Human CD200R, His-tagged (Creative Biomart CD200R1-320H) (human) (UniProt Q8TD46); assay: SPR (BIAcore T200), CD200-Fc captured on anti-human Fc, human CD200R in solution, 25 C
[4] = target: Recombinant Human CD200R, His-tagged (Creative Biomart CD200R1-320H) (human) (UniProt Q8TD46); assay: SPR (BIAcore T200), CD200-Fc captured on anti-human Fc, human CD200R in solution, 25 C, mean of two runs
[5] = target: Recombinant Cyno CD200R, His-tagged (Creative Biomart CD200R1-3483C) (cynomolgus) (UniProt G7NZT0); assay: SPR (BIAcore T200), CD200-Fc captured on anti-human Fc, cyno CD200R in solution, 25 C
[6] = target: Recombinant Cyno CD200R, His-tagged (Creative Biomart CD200R1-3483C) (cynomolgus) (UniProt G7NZT0); assay: SPR (BIAcore), DS-155 captured via anti-human Fc, CynoCD200R1 as analyte, DRC = 1000 nM to 62.5 nM (5 curves), 25 °C, 1:1 Binding fit; Run 2
[7] = target: Recombinant Human CD200R, His-tagged (Creative Biomart CD200R1-320H) (human) (UniProt Q8TD46); assay: SPR (BIAcore), DS-155 captured via anti-human Fc, HuCD200R1 as analyte, DRC = 500 nM to 31.25 nM (5 curves), 25 °C, 1:1 Binding fit; Run 1
[8] = target: Recombinant Cyno CD200R, His-tagged (Creative Biomart CD200R1-3483C) (cynomolgus) (UniProt G7NZT0); assay: SPR (BIAcore), DS-155 captured via anti-human Fc, CynoCD200R1 as analyte, DRC = 1000 nM to 62.5 nM (5 curves), 25 °C, 1:1 Binding fit; Run 1
[9] = target: Recombinant Human CD200R, His-tagged (Creative Biomart CD200R1-320H) (human) (UniProt Q8TD46); assay: not described (affinity label of the construct for CD200R)
[10] = target: T1, muCD200R-Fc (Creative Biomart CD200R1-458M) (mouse, UniProt Q9ES57 26-238); assay: SPR, muCD200R-Fc captured on anti-human IgG Fc, CD200 monomers in solution
T1 construct: Bought reagent; also called captured CD200R; not shown: Fc part of the bought fusion; captured on anti-human IgG Fc
T1 sequence (looked up): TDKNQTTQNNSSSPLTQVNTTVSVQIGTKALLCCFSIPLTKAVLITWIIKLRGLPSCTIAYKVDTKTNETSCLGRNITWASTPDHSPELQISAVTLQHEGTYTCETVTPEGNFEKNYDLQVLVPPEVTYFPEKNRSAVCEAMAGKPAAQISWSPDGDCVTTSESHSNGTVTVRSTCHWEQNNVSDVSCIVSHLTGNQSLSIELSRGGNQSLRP
Method: For human CD200 constructs: anti-human Fc (GE Healthcare) was covalently immobilized on a BIAcore CM5 sensor chip (Cytiva, BR100530) by amine coupling using a Cytiva kit (BR100839) following the manufacturer's instructions, targeting immobilization of 8,000-11,000 RU. CD200-Fc proteins were diluted to 0.5 μg/mL to 4 μg/mL in running Buffer (1×HBS-EP+pH7.4 (Cytiva BR100669), HEPES Buffered Saline pH 7.4 containing 3 mM EDTA and 0.05% v/v Surfactant P20) and flowed for 25 to 100 seconds at […] over the immobilized Anti-Human IgG Fc, with a stabilization time of 60 seconds. Between 35 and 250 RUs of CD200-Fc were captured, with higher RUs used for cynomolgus CD200R binding experiments. […] Analysis temperature was 25° C. This was followed by regeneration of the surface with 30-90 second pulse of 3M MgCl₂ flowed at 30 μL/min flow rate followed by stabilization of the surface with 60 second flow of running buffer.
(§1) For mouse CD200 constructs, muCD200R-Fc (Creative Biomart CD200R1-458M) diluted to 1 μg/mL in running buffer was flowed over the immobilized Anti-Human IgG Fc, with CD200 monomers serially diluted and flowed over captured CD200R. Other details were as above. Data analysis: experimental sensorgrams were analyzed in BIAevaluation software (GE Healthcare). The curves obtained were fitted to 1:1 Langmuir binding model by setting Rmax and RI as local parameters. Rate equations using standard parameters (e.g. ligand concentration, time) were used for iterative curve fitting. Closeness of fit was determined by algorithms provided by the manufacturer in the BIAevaluation software, and data accepted if the Chi² value was less than 10% of Rₘₐₓ, and the U value was less than or equal to 15.

muCD200R-Fc = target: T2, muCD200R-Fc (Mus musculus, UniProt Q9ES57); assay: BIAcore SPR binding of murine CD200 variants to muCD200R-Fc
T2 construct: purchased Creative Biomart CD200R1-458M
T2 sequence (Q9ES57 26-238 limits assumed): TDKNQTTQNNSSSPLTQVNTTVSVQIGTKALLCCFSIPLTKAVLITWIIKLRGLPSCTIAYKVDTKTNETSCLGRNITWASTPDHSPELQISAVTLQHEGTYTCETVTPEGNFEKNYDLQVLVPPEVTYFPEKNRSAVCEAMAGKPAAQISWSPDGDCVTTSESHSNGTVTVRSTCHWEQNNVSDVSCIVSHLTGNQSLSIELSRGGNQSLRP
Method: as §1, with “Chi^2” for “Chi²”, “Rmax,” for “Rₘₐₓ,”
Murine CD200 constructs used Uniprot sequence O54901, containing the signal peptide and extracellular domains. Mutation numbers refer to the full Uniprot sequences including signal peptide.
Proteins were generated by transient transfection of pcDNA 3.1-based expression plasmids into CHO-3E7 cells using Polyethyleneimine (PEI). 24 hours post transfection, cultures were shifted to 32° C., fed with 10% feed C, glutamine, glucose and […] Sodium butyrate; supernatants were harvested and filtered at day 7. Purification was performed at 4° C. using MabSelect SuRe 5 ml affinity columns (Cytiva), pre-equilibrated with 50 mM Sodium Phosphate, 150 mM NaCl PH 7.4, at a flowrate of 3 mL/min on a AKTA Pure platform. The column was washed with equilibration buffer and bound protein eluted using 20 mM sodium acetate, 150 mM NaCl pH 3.5. Elutes were neutralized with 10% v/v 1 M Tris pH 8.0 and analysed by SDS-PAGE. Pooled fractions were concentrated to 5 mL and subjected to gel-filtration chromatography (Hiload 16/600 Superdex-200 pg column) on a AKTA Pure platform. The protein was processed in 50 mM Sodium Phosphate, 150 mM NaCl pH 7.4 buffer system at 1.2 mL/min. Fractions containing protein were pooled and concentrated using an Amicon Ultra Centricon (10 kDa molecular weight cut-off) to 1.33 mg/mL (measured at UV 280 nm). The purified material was subjected to SEC-HPLC, LC-MS and EndoSafe LAL cartridge test to assess protein purity, molecular mass and endotoxin content, respectively. Mouse CD200-his proteins were purified with Ni-NTA agarose resin using standard methodology. All proteins were stored at −80° C.

male DBA/1J mice = assay: Mouse collagen-induced arthritis (CIA) model, preventative dosing; assay type: in vivo; settings: 3 mg/kg once every 3 days, day 22 to 36; scores day 25-36
Method: Wild type (DS-198) and higher affinity (DS-227) murine CD200-Fc proteins were tested using a CIA model by initiating dosing just prior to symptom onset. Arthritis was induced in male DBA/1J mice by intradermal injection of bovine type II collagen in CFA (complete Freund's adjuvant) on day 1, followed by a booster injection in incomplete Freund's adjuvant on day 21. […] Clinical scores of paw arthritis (blinded assessment) were measured from day 25-36 on alternate days. The data in FIG. 9 are shown as Mean±SEM. **p<0.01; ***p<0.001 vs Disease+Dexa, Disease+DS-198, & Disease+DS-227. Two-way RM ANOVA followed by Tukey's multiple comparisons test.

[11] = murine CD200, stated in text, read-out: binding affinity

“DS-155 (wild-type human CD200-Fc, IgG4 S228P) (from UniProt P41217 31-232; P01861 99-327) (Fc fusion)” showed a Kd [1] of 971 nM, a koff [1] of 0.0586 s⁻¹ and a kon [1] of 60600 M⁻¹ s⁻¹. It also gave a Kd [2] of 183 nM, a koff [2] of 0.0329 s⁻¹ and a kon [2] of 180000 M⁻¹ s⁻¹. It also gave a t½ [3] of 21 s, a Kd [4] of 179 nM and a koff [4] of 0.0326 s⁻¹. It also gave a kon [4] of 183000 M⁻¹ s⁻¹, a t½ [5] of 12 s and a Kd [6] of 1050 nM. It also gave a koff [6] of 0.0608 s⁻¹, a kon [6] of 57600 M⁻¹ s⁻¹ and a Kd [7] of 174 nM. The koff [7] was 0.0324 s⁻¹, the kon [7] was 186000 M⁻¹ s⁻¹ and the Kd [8] was 888 nM. For the same molecule, the koff [8] was 0.0564 s⁻¹ and the kon [8] was 63500 M⁻¹ s⁻¹.

“DS-192 (human CD200 K130Y - IgG4 S228P Fc) (from UniProt P41217 31-232; P01861 99-327) (Fc fusion)” showed a Kd [9] of 13 nM.

B1: murine CD200 wild type (Table 7 'wt') (ligand, mouse, UniProt O54901 31-232, looked up)
chain: QVEVVTQDERKALHTTASLRCSLKTSQEPLIVTWQKKKAVSPENMVTYSKTHGVVIQPAYKDRINVTELGLWNSSITFWNTTLEDEGCYMCLFNTFGSQKVSGTACLTLYVQPIVHLHYNYFEDHLNITCSATARPAPAISWKGTGTGIENSTESHFHSNGTTSVTSILRVKDPKTQVGKEVICQVLYLGNVIDYKQSLDKG
notes: extracellular domain; The Fc fusion with the same CD200 part is DS-198 (muIgG2a); also called mouse CD200-his; CD200 monomer
In the case of B1, the “T1/2” value [10] is reported as 17.3 s.

B2: murine CD200 H82Y, T125I (Table 7 combination variant) (ligand, mouse, UniProt O54901 31-232, looked up)
chain: QVEVVTQDERKALHTTASLRCSLKTSQEPLIVTWQKKKAVSPENMVTYSKTYGVVIQPAYKDRINVTELGLWNSSITFWNTTLEDEGCYMCLFNIFGSQKVSGTACLTLYVQPIVHLHYNYFEDHLNITCSATARPAPAISWKGTGTGIENSTESHFHSNGTTSVTSILRVKDPKTQVGKEVICQVLYLGNVIDYKQSLDKG
notes: extracellular domain; The Fc fusion with the same mutations is DS-227 (muIgG2a, called '43 nM muCD200-Fc'); also called combination variant H82Y, T1251; mouse CD200-his
With B2 the “T1/2” value [10] was 118 s and the “fold higher binding affinity than wild type” value [10] was ~14 fold.

B3: H82Y, T125I: murine CD200 combination variant H82Y, T125I of Table 7 (protein)
chain: QVEVVTQDERKALHTTASLRCSLKTSQEPLIVTWQKKKAVSPENMVTYSKTYGVVIQPAYKDRINVTELGLWNSSITFWNTTLEDEGCYMCLFNIFGSQKVSGTACLTLYVQPIVHLHYNYFEDHLNITCSATARPAPAISWKGTGTGIENSTESHFHSNGTTSVTSILRVKDPKTQVGKEVICQVLYLGNVIDYKQSLDKG
With B3 the Kd (muCD200R-Fc; [11]) was 43 nM, the Kd (muCD200R-Fc; murine CD200 variants, table head prints no unit, nM, read-out: KD) was 43.3 ± 4.9 nM and the “fold higher binding affinity than wild type” value (muCD200R-Fc; versus wild type murine CD200) was “approximately 14 fold”.

B4: DS-227: high affinity murine CD200-Fc, CD200 H82Y, T125I, muIgG2a Fc (protein)
chain: QVEVVTQDERKALHTTASLRCSLKTSQEPLIVTWQKKKAVSPENMVTYSKTYGVVIQPAYKDRINVTELGLWNSSITFWNTTLEDEGCYMCLFNIFGSQKVSGTACLTLYVQPIVHLHYNYFEDHLNITCSATARPAPAISWKGTGTGIENSTESHFHSNGTTSVTSILRVKDPKTQVGKEVICQVLYLGNVIDYKQSLDKG
modifications: left off: small tags and cut ends
In the case of B4, the “clinical score of paw arthritis” value (male DBA/1J mice) is reported as “significantly more potent in reducing clinical score than wild type (DS-198)” and the Kd (muCD200R-Fc; [11]) is reported as 43 nM.
